The RNAGym collection of RNA variant scans (doi:10.7554/elife.90254)

B1: LINE1-full (parent)
chain: UACGUAGGUGGUUUUCCCCUGAUAGUGCUAAGGGGGCCUGGAAGUUUGGACUGGGCAGAGCUCAACACAGCGUGGCAAAGUGGCUGUGGCUAGACUGCCUCUCUGGAUUCCUCGUCACUCAGCAGGGCAUCUCUGAGAGAAAUGCC

Variants of: B1
Test: self-cleavage, relative activity (ratio to wild type); higher = more cleavage; in vitro, sequencing; the parent is a self-cleaving ribozyme

Row | Variant | self-cleavage
1 | U14C C110U | 1.39
2 | G36U A141G | 0.91
3 | C56U A129G | 0.22
4 | C90U U96A | 0.06
5 | U62C A117U | 0.03
6 | C84A C145U | 0.08
7 | A92C A141G | 0.26
8 | U14A U73A | 1.39
9 | U85A U143C | 0.11
10 | A69G | 0.5
11 | A65G U108C | 0.07
12 | C71U U100C | 1.31
13 | U13C U23C | 0.41
14 | U23C A77U | 1.36
15 | U5A U85C | 0.2
16 | G105U U115A | 1.72
17 | A79C U119C | 1.82
18 | C28U G89U | 0.06
19 | U46C U85C | 0.35
20 | A129C U130A | 1.47
21 | U9C C84A | 0.26

Row | Variant | self-cleavage
22 | A124G A142C | 0.58
23 | U15A A50G | 0.67
24 | C19U A140U | 0.82
25 | U87A U134C | 0.1
26 | A42U A94G | 0.24
27 | A121U A124C | 1.14
28 | A79U U100C | 2.92
29 | U26A U85A | 0.16
30 | A59G C113U | 0.06
31 | G126A G127U | 1.44
32 | A67G A129U | 0.04
33 | U14C U39G | 0.36
34 | A67U C128U | 0.1
35 | U14C C99A | 0.86
36 | G58A U81C | 0.05
37 | A138G G144C | 1.6
38 | U20C U47C | 1.57
39 | U15C G83A | 0.72
40 | G60A U112A | 0.04
41 | A42G U100A | 1.28
42 | C113U U115C | 1

Row | Variant | self-cleavage
43 | G8A C37U | 1.31
44 | A57C U102C | 0.1
45 | U87C A142U | 0.09
46 | U45C C71A | 0.15
47 | U12C U73C | 1.65
48 | U23C C120U | 0.55
49 | U39C U102C | 0.99
50 | G36C U143C | 1.43
51 | A94U U104C | 0.55
52 | U13G A69U | 0.39
53 | U13A A69G | 0.25
54 | G75A U143A | 1.53
55 | U15C G144A | 1.04
56 | U26C A31G | 0.91
57 | U20G G127A | 1.37
58 | U47C U85G | 0.32
59 | G82U U102C | 1.45
60 | U13A C145U | 1.26
61 | U85A U132C | 0.09
62 | A79U A140G | 1.85
63 | C56G A92U | 0.04

Row | Variant | self-cleavage
64 | A77U A129G | 1.45
65 | G58A C71U | 0.03
66 | U15A A69U | 0.05
67 | U15C A57C | 0.09
68 | U1A A30C | 1.44
69 | U15C G122U | 1.16
70 | U134C | 1.18
71 | A31U A43G | 0.9
72 | G25C U104A | 1.91
73 | U23C G53A | 0.87
74 | A64G U112C | 0.28
75 | A42G U81C | 1.55
76 | U9C A78G | 1.19
77 | A79U A141G | 1.71
78 | A78U U104G | 0.55
79 | G89A U96C | 0.07
80 | U15C A65U | 0.2
81 | U85A U87G | 0.07
82 | A77U A136C | 1.67
83 | C90G U109C | 0.07
84 | A31U U73A | 1.33
